Results published in patent EP4800033A1, “HUMANIZED ANTI-CKAP4 ANTIBODY OR ANTIGEN-BINDING FRAGMENT THEREOF” (The University of Osaka, priority 2023, dated 2025).
Numbering of substitutions follows the chain as printed.

B1: Humanized anti-CKAP4 antibody Hv1Lt1 (antibody, human IgG1, V domains shown)
VH: QVQLVQSGAEVKKPGASVKVSCKASGFTFTSYWMHWVRQAPGQGLEWIGNINPSNGGTNYNAKFKSRVTMTRDTSTSTVYMELSSLRSEDTAVYYCARWVSFSYRGAMDYWGQGTLVTVSS
VL: EIVLTQSPDFQSVTPKEKVTITCRASRAIRNNLHWYQQKPDQSPKLLIKYVSQSISGVPSRFSGSGSGTDFTLTINSLEAEDAATYYCQQSDSWPYTFGQGTKLEIK
notes: also called HvlLtl; Humanized antibody Hv1Lt1
B2: Humanized anti-CKAP4 antibody Hv2Lt1 (antibody, human IgG1, V domains shown)
VH: B1 VH with F27Y, I48M, N50I, N59S, N61A, A62Q, K65Q, S66G
VL: B1 VL
notes: also called Hv2Ltl; Humanized antibody Hv2Ltl
B3: Mouse anti-CKAP4 antibody 3F11-2B10 (antibody, V domains shown)
VH: VQLQQQPGTELVKPGASVKLSCKASGFTFTSYWMHWVKQRPGQGLEWIGNINPSNGGTNYNAKFKSKATLTVDKSSSTAYMQLSSLTSEDSAVYYCARWVSFSYRGAMDYWGQGTSVTVSS
VL: DIVLTQSPAILSVTPGDGVSLSCRASRAIRNNLHWFQQKSHESPRLLIKYVSQSISGIPSRFSGSGSGTDFTLSVDSVETEDFGVYFCQQSDSWPYTFGGGTKLEIK
notes: Mouse monoclonal antibody; also called Mouse antibody 3F11-2B10; original mouse anti-CKAP4 antibody

Tests used:
S2-CP8 cells = assay: Combination therapy assay, S2-CP8 xenograft tumors; type: in vivo, mice; settings: single agent
Procedure: Hv1Lt1 antibody or control IgG (280 µg/dose) was intraperitoneally administered twice a week. Gemcitabine (100 µg/dose, once weekly) or nab-PTX (10 mg/kg, twice weekly) was intraperitoneally administered. While lenvatinib (1 mg/kg) or a 0.5% (wt/vol) methylcellulose 400 solution was orally administered once a day, 6 days per week, tumor formation was continued for an additional 21 days, after which the mice were euthanized. The volume and weight of the excised tumors were measured.

HeLa S3 cells = assay: Propidium iodide nuclear staining / apoptosis; type: cell-based, human
[1] = target: T1, human CKAP4 extracellular region (465-602 amino acids) (human, UniProt Q07065 465-602); assay: SPR (Biacore T200, 25 C), antibody captured on anti-human IgG CM5 chip, CKAP4 465-602 as analyte, 1:1 Langmuir fit
T1 construct: also called extracellular region of CKAP4; extracellular domain of CKAP4
T1 sequence: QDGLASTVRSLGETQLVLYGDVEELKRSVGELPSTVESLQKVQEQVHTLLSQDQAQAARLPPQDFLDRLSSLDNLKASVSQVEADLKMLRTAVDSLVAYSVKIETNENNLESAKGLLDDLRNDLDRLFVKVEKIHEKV

[2] = target: T2, CKAP4 in lysates of mouse lung cancer cells Lewis Lung Carcinoma (LLC) (mouse, UniProt Q8BMK4 1-575); assay: blot of LLC cell lysate
T2 construct: also called mouse CKAP4; endogenous CKAP4 (mouse tissues)
T2 sequence (looked up): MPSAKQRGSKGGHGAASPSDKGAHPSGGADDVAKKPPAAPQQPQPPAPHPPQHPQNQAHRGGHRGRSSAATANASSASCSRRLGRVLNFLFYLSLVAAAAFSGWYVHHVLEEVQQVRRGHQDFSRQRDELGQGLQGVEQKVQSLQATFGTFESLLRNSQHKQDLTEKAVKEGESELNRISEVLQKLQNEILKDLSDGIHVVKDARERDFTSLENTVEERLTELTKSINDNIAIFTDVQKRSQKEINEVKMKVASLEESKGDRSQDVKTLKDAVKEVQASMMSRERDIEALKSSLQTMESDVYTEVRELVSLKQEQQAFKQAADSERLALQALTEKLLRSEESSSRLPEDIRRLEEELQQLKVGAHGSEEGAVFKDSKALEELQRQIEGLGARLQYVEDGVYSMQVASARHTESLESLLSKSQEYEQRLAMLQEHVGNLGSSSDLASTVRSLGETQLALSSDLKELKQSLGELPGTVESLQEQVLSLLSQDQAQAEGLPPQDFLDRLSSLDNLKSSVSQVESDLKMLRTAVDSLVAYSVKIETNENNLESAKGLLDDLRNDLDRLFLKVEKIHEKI

[3] = target: T1, human CKAP4 extracellular region …; assay: SPR (Biacore T200, 25 C), antibody captured on anti-mouse IgG CM5 chip, CKAP4 465-602 as analyte, 1:1 Langmuir fit

Row | Molecule | Kd [1] [nM] | koff [1] [s⁻¹] | kon [1] [M⁻¹ s⁻¹] | other results
1 | Nc1ccn([C@@H]2O[C@H](CO)[C@@H](O)C2(F)F)c(=O)n1 [gemcitabine] | – | – | – | antitumor effects in vivo as single agents (S2-CP8 cells): antitumor effects
2 | CN[C@@H]1C[C@H]2O[C@@](C)([C@@H]1OC)n1c3ccccc3c3c4c(c5c6ccccc6n2c5c31)C(=O)NC4 [staurosporine] | – | – | – | nuclear staining with propidium iodide (HeLa S3 cells): strongly stained
3 | B1 | 0.761 | 1.14e-05 | 15000 | –
4 | B2 | 0.0449 | 1.7e-06 | 37900 | binding result [2]: binds
5 | B3 | – | – | – | Kd [3]: 14.5 nM; koff [3]: 0.0018 s⁻¹; kon [3]: 125000 M⁻¹ s⁻¹
